This is an account of results in patent publication US20120324606A1.

pIC50: −log10 of the molar value.

The target of experiment [1] is BBMV proteins (receptor binding sites) in brush border membrane vesicles from European corn borer (ECB; Ostrinia nubilalis) larval midgut. Put plainly: homologous competition: unlabeled Cry1Ab against 0.5 nM 125I Cry1Ab on ECB BBMVs.
The target of experiment [2] is BBMV proteins (receptor binding sites) in brush border membrane vesicles from fall armyworm (FAW; Spodoptera frugiperda) larval midgut. Put plainly: homologous competition: unlabeled Cry1Ab against 0.5 nM 125I Cry1Ab on FAW BBMVs.
Experiment [3] shares this target. Put plainly: heterologous competition: unlabeled Cry1Ab against 0.5 nM 125I Cry1Be on FAW BBMVs.
The target is the same in experiment [4]. Put plainly: heterologous competition: unlabeled Cry1Ab against 0.5 nM 125I Cry1Be on FAW BBMVs; reference is homologous Cry1Be.

Consider “Cry1Ab insecticidal protein (purified truncated Cry toxin) (from UniProt P0A370 29-612) (ligand)”, for which the pIC50 (commonly the negative decadic logarithm of the IC50, by convention in mol/L) in experiment [1] was 9.30; in experiment [2], 9.52; in experiment [3] it was 6.00. The fold lower affinity to compete for the binding of Cry1Be in experiment [4] came out at 500 fold.
